Measured values: US20110206704A1, “Methods and compositions for modulating hepatocyte growth factor activator” (Genentech, Inc., priority 2009, published 2011)
Positions count from the first letter of the chain named. One block for each molecule: values may come before it. * marks the point of attachment. CH2Cl = ClC*

What was measured:
[1] = molecular target: T1, HGFA (Homo sapiens, UniProt Q04756); assay: Ab40 binding to HGFA in the presence of active site inhibitors (surface plasmon resonance); conditions: active site inhibitor present; result in words
T1 construct: His6 behind an AAA linker) (C); made in house; host or cells: baculovirus - insect cell expression system
T1 sequence (Q04756 373-655): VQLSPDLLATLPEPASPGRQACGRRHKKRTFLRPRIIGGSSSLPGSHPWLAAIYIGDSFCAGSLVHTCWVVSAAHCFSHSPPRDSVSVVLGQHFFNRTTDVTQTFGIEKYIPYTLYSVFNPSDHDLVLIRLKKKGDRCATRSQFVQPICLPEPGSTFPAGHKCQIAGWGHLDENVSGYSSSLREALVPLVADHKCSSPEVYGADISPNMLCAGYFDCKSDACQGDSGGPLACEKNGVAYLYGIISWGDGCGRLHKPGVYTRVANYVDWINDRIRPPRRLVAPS
Description: FIG. 3: Effects of active site inhibitors on antibody binding to HGFA. (a-b, e-f) Surface plasmon resonance (BIAcore) measurements of binding to immobilized antibodies, Ab40 (a-b) or Ab40.ΔTrp (e-f), after co-injection of HGFA (a,e) or HGFA-KQLR (b, f) complex (“KQLR” disclosed as SEQ ID NO: 21). (c) Competition binding (BIAcore) of HGFA to immobilized Ab40 in presence of different concentrations of KD1. (d) Competition binding ELISA measuring binding of HGFA to biotinylated KD1 in the presence of increasing antibody concentrations.
Antibody reformatting and determination of dissociation rate constants to HGFA: Anti-HGFA Fabs were reformatted into human IgG1 by cloning the VL and VH regions of individual clones into LPG3 and LPG4 vector, respectively (Liang et al, 2007). The full-length antibodies were transiently expressed in Chinese Hamster Ovary cells and purified on a protein-A column. […] Association rates (kon) and dissociation rates (koff) were obtained by using a simple one-to-one Langmuir binding model (BIAEvaluation) and the equilibrium dissociation constants (KD) were calculated (koff/kon). […] The values of Req (20-80% of Rmax) were calculated and plotted individually against C (concentration of HGFA or HGFA-KQLR (“KQLR” disclosed as SEQ ID NO: 21)) using BIAEvaluation Software to determine KD at the steady state analysis. […]

[2] = molecular target: HGFA (Val373-Ser655 plus tag …) (human) (UniProt Q04756); assay: SPR (BIAcore), IgG captured by anti-human IgG, HGFA injected
[3] = molecular target: HGFA (Val373-Ser655 plus tag …) (human) (UniProt Q04756); assay: cell-based or functional assay
[4] = molecular target: T2, HGFA-KQLR complex (human, UniProt Q04756 373-655, N-terminal acetyl; C-terminal chloromethyl ketone, reacted with Ser195 and His57 of HGFA; Ser195 and His57 (chymotrypsinogen numbering) covalently linked to Ac-KQLR-cmk); assay: SPR (BIAcore), IgG captured by anti-human IgG, HGFA-KQLR complex injected
T2 construct: Made by incubating HGFA with a two fold molar excess of Ac-KQLR-cmk for 2 hours, then size exclusion chromatography

[5] = molecular target: T3, HGFA (Val373-Ser655 plus tag …) (human, UniProt Q04756 373-655); assay: cell-based or functional assay
T3 sequence: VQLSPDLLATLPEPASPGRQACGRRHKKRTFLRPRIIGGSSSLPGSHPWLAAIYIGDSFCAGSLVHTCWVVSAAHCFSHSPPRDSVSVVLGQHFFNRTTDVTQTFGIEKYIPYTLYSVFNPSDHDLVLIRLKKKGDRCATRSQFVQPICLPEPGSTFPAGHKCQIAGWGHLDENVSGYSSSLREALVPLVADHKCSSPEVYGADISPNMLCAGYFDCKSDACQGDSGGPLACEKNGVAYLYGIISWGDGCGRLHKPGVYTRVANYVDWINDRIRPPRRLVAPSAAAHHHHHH

[6] = molecular target: T3, HGFA (Val373-Ser655 plus tag …); assay: SPR (BIAcore)
[7] = molecular target: T2, HGFA-KQLR complex; assay: SPR (BIAcore)
[8] = molecular target: T3, HGFA (Val373-Ser655 plus tag …); assay: competition ELISA: plate coated with HGFA, incubated with increasing Ab40, then 1 nM biotinylated KD1 (blocked ligand) detected with streptavidin-HRP
[9] = molecular target: T3, HGFA (Val373-Ser655 plus tag …); assay: SPR (BIAcore), IgG captured by anti-human IgG, HGFA injected
[10] = molecular target: T3, HGFA (Val373-Ser655 plus tag …); assay: SPR (BIAcore), steady state affinity, IgG captured, HGFA injected
[11] = molecular target: T2, HGFA-KQLR complex; assay: SPR (BIAcore), steady state affinity, IgG captured, HGFA-KQLR complex injected

B1: Ab39 (antibody, from a related filing, human IgG1, V domains shown)
VH: EVQLVESGGGLVQPGGSLRLSCAASGFTFNGTYIHWVRQAPGKGLEWVGGIYPAGGATYYADSVKGRFTISRDNSKNTLYLQMNSLRAEDTAVYYCAKWWAWPAFDYWGQGTLVTVSS
VL: DIQMTQSPSSLSASVGDRVTITCRASQDVSTAVAWYQQKPGKAPKLLIYSASFLYSGVPSRFSGSGSGTDFTLTISSLQPEDFATYYCQQSYTTPPTFGQGTKVEIKR
Kd [2]: 10.3 nM | koff [2]: 0.0053 s⁻¹ | kon [2]: 520000 M⁻¹ s⁻¹ | Km^app of S-2266 hydrolysis at 1 µM Ab39 (control Km=0.25 mM) [3]: 910 µM | Vmax^app of S-2266 hydrolysis at 1 µM Ab39 (control Vmax=0.99 µM pNA/min) [3]: 0.97 µM pNA/min

B2: Ab40 (antibody, V domains shown)
VH: B1 VH with F29I, R72A, N74T, L79A
VL: B1 VL with Y92N, T93R, T94A, P96A
Kd [4]: 1.35 nM | koff [4]: 0.00043 s⁻¹ | kon [4]: 320000 M⁻¹ s⁻¹ | IC50 (read off the curve), HGFA fractional activity vi/vo on S-2266 [5]: ~8 nM | fold improvement in binding affinity over Ab39 [6]: 64 fold | fold decrease in affinity compared to HGFA [7]: 8 fold | IC50 (read off the curve) [8]: ~1 nM | Kd [9]: 0.16 nM | koff [9]: 0.000175 s⁻¹ | kon [9]: 1.08e+06 M⁻¹ s⁻¹

B3: Ab40.ΔTrp (antibody, V domains shown)
VH: EVQLVESGGGLVQPGGSLRLSCAASGFTINGTYIHWVRQAPGKGLEWVGGIYPAGGATYYADSVKGRFTISADTSKNTAYLQMNSLRAEDTAVYYCAKWAWPAFDYWGQGTLVTVSS
VL: B1 VL with Y92N, T93R, T94A, P96A
Kd [10]: 150 nM | Kd [11]: 161 nM

Other lines, results leading:

interference with binding of Ab40 to HGFA [1]: did not interfere
Molecule: N=C(N)c1ccccc1 [Benzamidine]

interference with binding of Ab40 to HGFA [1]: interfered
Molecule: Ac-KQLR-chloromethyl ketone (Ac-KQLR-CH2Cl; SMILES CC(=O)N[C@@H](CCCCN)C(=O)N[C@@H](CCC(N)=O)C(=O)N[C@@H](CC(C)C)C(=O)N[C@@H](CCCNC(=N)N)C(=O)CCl) [Ac-KQLR-cmk]
